T1: 6xHis Grsp1_(2-400) (mouse, UniProt Q920B0-2 2-400)
T1 sequence (looked up): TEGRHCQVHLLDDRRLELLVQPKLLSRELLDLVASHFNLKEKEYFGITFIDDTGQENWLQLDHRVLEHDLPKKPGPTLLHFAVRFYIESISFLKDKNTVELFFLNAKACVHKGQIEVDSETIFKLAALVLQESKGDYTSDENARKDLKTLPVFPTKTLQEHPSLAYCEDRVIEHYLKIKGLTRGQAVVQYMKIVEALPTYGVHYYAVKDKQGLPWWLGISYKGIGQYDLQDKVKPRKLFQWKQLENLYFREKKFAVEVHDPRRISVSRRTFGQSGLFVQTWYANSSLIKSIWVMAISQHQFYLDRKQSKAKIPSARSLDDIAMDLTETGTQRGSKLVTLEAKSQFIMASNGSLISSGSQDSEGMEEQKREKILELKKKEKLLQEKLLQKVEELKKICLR


Legend:
[1] = molecular target: the molecule itself; experiment: AUC
[2] = molecular target: T1, 6xHis Grsp1_(2-400); experiment: SEC
[3] = molecular target: the molecule itself; experiment: SEC

Row | Binder | stoichiometry N [1] | percent of Grsp1_(2-400) bound [2] [%] | stoichiometry N [3]
1 | 6xHis ARNO_(2-252) (domain or fragment, human, UniProt Q99418 2-252, looked up) EDGVYEPPDLTPEERMELENIRRRKQELLVEIQRLREELSEAMSEVEGLEANEGSKTLQRNRKMAMGRKKFNMDPKKGIQFLVENELLQNTPEEIARFLYKGEGLNKTAIGDYLGEREELNLAVLHAFVDLHEFTDLNLVQALRQFLWSFRLPGEAQKIDRMMEAFAQRYCLCNPGVFQSTDTCYVLSFAVIMLNTSLHNPNVRDKPGLERFVAMNRGINEGGDLPEELLRNLYDSIRNEPFKIPEDDGND | 2 |  | 
2 | 6xHis Cytohesin-1_(2-244) (domain or fragment, human, UniProt Q15438 2-244, looked up) EEDDSYVPSDLTAEERQELENIRRRKQELLADIQRLKDEIAEVANEIENLGSTEERKNMQRNKQVAMGRKKFNMDPKKGIQFLIENDLLKNTCEDIAQFLYKGEGLNKTAIGDYLGERDEFNIQVLHAFVELHEFTDLNLVQALRQFLWSFRLPGEAQKIDRMMEAFAQRYCQCNNGVFQSTDTCYVLSFAIIMLNTSLHNPNVKDKPTVERFIAMNRGINDGGDLPEELLRNLYESIKNEPF |  | > 90 | 
3 | 6xHis Grp1_(13-248) (domain or fragment, mouse, UniProt O08967 13-248, looked up) PEDLSLEEREELLDIRRRKKELIDDIERLKYEIAEVMTEIDNLTSVEESKTTQRNKQIAMGRKKFNMDPKKGIQFLIENDLLQSSPEDVAQFLYKGEGLNKTVIGDYLGERDDFNIKVLQAFVELHEFADLNLVQALRQFLWSFRLPGEAQKIDRMMEAFASRYCLCNPGVFQSTDTCYVLSFAIIMLNTSLHNHNVRDKPTAERFITMNRGINEGGDLPEELLRNLYESIKNEPF |  | > 90 | 2
